From paper PMC7419483, “Phenolic metabolism in the hornwort Anthoceros agrestis: 4-coumarate CoA ligase and 4-hydroxybenzoate CoA ligase” (Plant Cell Reports, 2020)

Tests used:
Aa4CL_1 = Aa4CL_1 (Anthoceros agrestis, UniProt A0A6M6A6J9); experiment: spectrophotometric CoA-ester formation, Michaelis-Menten; format: biochemical; settings: pH 7.0 potassium phosphate, 40 °C
Source text: spectrophotometric CoA-ester formation, Michaelis-Menten on Aa4CL_1

purified protein [1] = substrate: Nc1ncnc2c1ncn2[C@@H]1O[C@H](COP(=O)(O)OP(=O)(O)OP(=O)(O)O)[C@@H](O)[C@H]1O; experiment: purified protein; settings: pH 7.0 potassium phosphate, 45 °C, co-substrates 4-hydroxybenzoic acid and CoA, MgCl2, 1 mM DTT
purified protein [2] = substrate: O=C(O)c1ccc(O)cc1; experiment: purified protein; settings: apparent Km, pH 7.0 potassium phosphate, 45 °C, standard assay […] ATP, […] MgCl2, 500 µM CoA, 1 mM DTT
purified protein [3] = substrate: CC(C)(COP(=O)(O)OP(=O)(O)OC[C@H]1O[C@@H](n2cnc3c(N)ncnc32)[C@H](O)[C@@H]1OP(=O)(O)O)[C@@H](O)C(=O)NCCC(=O)NCCS; experiment: purified protein; format: biochemical, Anthoceros agrestis; settings: pH 7.0 potassium phosphate, 45 °C, co-substrates 4-hydroxybenzoic acid and ATP, MgCl2, 1 mM DTT
[4] = standard assay […] ATP, […] MgCl2, 500 µM CoA, 1 mM DTT
[5] = MgCl2, hydroxycinnamic acid co-substrate not stated

Sequence of Aa4CL_1 (A0A6M6A6J9 entry or part of it): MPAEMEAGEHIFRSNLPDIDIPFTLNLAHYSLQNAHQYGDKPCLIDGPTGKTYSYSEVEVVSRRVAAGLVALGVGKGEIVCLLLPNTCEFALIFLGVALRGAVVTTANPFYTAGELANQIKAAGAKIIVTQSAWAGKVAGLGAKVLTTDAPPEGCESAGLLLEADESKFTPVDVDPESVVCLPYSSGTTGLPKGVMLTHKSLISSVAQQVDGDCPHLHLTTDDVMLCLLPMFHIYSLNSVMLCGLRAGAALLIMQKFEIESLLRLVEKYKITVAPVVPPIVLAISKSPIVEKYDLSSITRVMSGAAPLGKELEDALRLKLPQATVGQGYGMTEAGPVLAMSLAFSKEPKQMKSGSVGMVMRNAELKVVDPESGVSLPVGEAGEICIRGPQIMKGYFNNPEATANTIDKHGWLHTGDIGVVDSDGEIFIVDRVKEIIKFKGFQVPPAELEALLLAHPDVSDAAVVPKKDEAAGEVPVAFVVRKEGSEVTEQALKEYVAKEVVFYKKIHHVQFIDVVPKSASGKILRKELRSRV

Question: Which Km (Aa4CL_1; standard assay […] ATP, […] MgCl2, 500 µM CoA, no DTT) does the source give for `O=C(O)/C=C/c1ccc(O)c(O)c1` [caffeic acid] here?
Answer: 15.5 ± 1.9 µM

Question: `O=C(O)/C=C/c1ccccc1` [cinnamic acid] was tested. Which Km (Aa4CL_1; [4]) did it give?
Answer: 218 ± 74.7 µM

Question: How did the Km (Aa4CL_1; [4]) turn out when `COc1cc(/C=C/C(=O)O)ccc1O` [ferulic acid] was run?
Answer: 61.4 ± 21.9 µM

Question: For `O=C(O)/C=C/c1ccc(O)cc1` [4-coumaric acid], which Km (Aa4CL_1; [4]) is on record?
Answer: 12.8 ± 4 µM

Question: For `COc1ccc(/C=C/C(=O)O)cc1O` [isoferulic acid], which Km (Aa4CL_1; [4]) is on record?
Answer: 9.9 ± 1.8 µM

Question: `CC(C)(COP(=O)(O)OP(=O)(O)OC[C@H]1O[C@@H](n2cnc3c(N)ncnc32)[C@H](O)[C@@H]1OP(=O)(O)O)[C@@H](O)C(=O)NCCC(=O)NCCS` [CoA] was tested. Which Km (Aa4CL_1; [5]) did it give?
Answer: 10.2 ± 0.2 µM

Question: `Nc1ncnc2c1ncn2[C@@H]1O[C@H](COP(=O)(O)OP(=O)(O)OP(=O)(O)O)[C@@H](O)[C@H]1O` [ATP] was tested. Which Km (Aa4CL_1; [5]) did it give?
Answer: 227 ± 31.8 µM

B1: Aa4HBCL (Anthoceros agrestis) (protein)
chain: MASLSEPEHIFRSSLPAAAIPNVTVPEYILLNAIRPEDEHRVAVVDASDERQYTYGQTRILVKNVAAGLRNLLGIRKGDVVFVLLPNTAEYFILVLGIMWAGGVYSGGNPYAHPGEIEKQIQDSEAKVVVTDSTYFEKVKQFAHQLPILLTPVSSAAPTDKSVTPNPEGSTSVQRLLEYDGSEYVPPEPISQDDLCALPYSSGTTGLSKGVKLTHRNLLANTTRTCPIPAVPPTPAQLASVKRYVVLGLLPFFHIYGTTGICCSTMRYQGTLVVLPRYDLRLMLAALIKYEVTFTPLVPPIILQMVKSPIVNEFDLSKLKLEGVMTAAAPLPPDIQKAFEARFPGVELRQAYGLTEYSCITLSHVPLGYPRGNAKKGSVGFLIPGTEMKILDPDTGKSLPANRAGEICVRGESTMNGYFKNEEATAATIDEQGWLHTGDVGYIDDDGDVFIVERAKELIKYKGFQVPPAELEAILVAHPLIADAAVIPIPDDEAGELPAACVVLAPNSHLNEEDVIRYVGAKVASYKKVRHVEFVSSIPKSLSGKTLRRVLKDDILKRLKKTENQLI
Question: With B1 as the molecule, how does the Km (purified protein [1]) read?
Answer: 1175.3 ± 135.2 µM

Question: What about the Vmax (purified protein [1]) of the same molecule?
Answer: 1.4 µmol/min/mg

Question: And the kcat (purified protein [1])?
Answer: 1.6 s⁻¹

Question: What about the kcat/Km (purified protein [1]) of the same molecule?
Answer: 1300 M⁻¹ s⁻¹

Question: And the Km (purified protein [2])?
Answer: 664.2 ± 1.5 µM

Question: What about the Vmax (purified protein [2]) of the same molecule?
Answer: 0.99 µmol/min/mg

Question: And the kcat (purified protein [2])?
Answer: 1.1 s⁻¹

Question: What about the kcat/Km (purified protein [2]) of the same molecule?
Answer: 1700 M⁻¹ s⁻¹

Question: And the Km (purified protein [3])?
Answer: 247.8 ± 19.9 µM

Question: And the Vmax (purified protein [3])?
Answer: 1.95 µmol/min/mg

Question: What about the kcat (purified protein [3]) of the same molecule?
Answer: 2.2 ± 0.1 s⁻¹

Question: What about the kcat/Km (purified protein [3]) of the same molecule?
Answer: 8700 M⁻¹ s⁻¹
